Experimental data from publication PMC9232537.

Target: 6xHis-N-WASP (UniProt O00401)
UniProt O00401, sequence (O00401 whole entry): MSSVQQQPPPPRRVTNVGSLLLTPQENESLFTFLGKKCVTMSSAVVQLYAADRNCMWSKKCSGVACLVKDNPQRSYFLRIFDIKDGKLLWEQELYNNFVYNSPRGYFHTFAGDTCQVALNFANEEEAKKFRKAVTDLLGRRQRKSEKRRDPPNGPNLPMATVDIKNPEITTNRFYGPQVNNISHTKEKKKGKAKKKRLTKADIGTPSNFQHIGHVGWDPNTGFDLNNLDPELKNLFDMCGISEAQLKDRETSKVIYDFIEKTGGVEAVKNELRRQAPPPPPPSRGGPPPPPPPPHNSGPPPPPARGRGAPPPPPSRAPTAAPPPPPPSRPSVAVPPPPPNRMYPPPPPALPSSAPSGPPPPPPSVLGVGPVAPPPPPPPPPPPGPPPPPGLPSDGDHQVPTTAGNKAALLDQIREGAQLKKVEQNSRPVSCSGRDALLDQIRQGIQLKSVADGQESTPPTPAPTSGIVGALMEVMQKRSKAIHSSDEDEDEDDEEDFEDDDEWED

## purified native MirA (natural protein)
  pyrene actin (1 µM, 10% labeled) polymerization with Arp2/3 complex (50 nM), N-WASP (200 nM) and increasing MirA; MirA concentration for half-maximum activity (time to half-maximum fluorescence): 60 nM
